{"source": "paper PMC5636791", "about": "“Non-canonical reader modules of BAZ1A promote recovery from DNA damage”", "key": {"[1]": {"biological_target": "T1, BAZ1A-PHD (human, UniProt Q9NRL2 1137-1202)", "T1 sequence": "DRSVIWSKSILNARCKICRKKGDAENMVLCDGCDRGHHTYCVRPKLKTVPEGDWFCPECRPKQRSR", "test": "BLI", "settings": "n=6; value from figure text layer, assigned to the nucleosome panel; BLI: 50 mM Tris pH 7.5, 150 mM NaCl, 1 mM TCEP, 0.5% BSA, 0.01% Tween-20, 23 C; FP: 20 mM Tris pH 7.5, 150 mM NaCl, 1% glycerol, 0.5 mg/mL BSA, 0.05% Triton …"}, "[2]": {"biological_target": "T1, BAZ1A-PHD", "test": "HDX-MS; 30 uM protein, 100 uM DNA; C-terminal region protected, incl. K1181 and K1183; BLI: 50 mM Tris pH 7.5, 150 mM NaCl, 1 mM TCEP, 0.5% BSA, 0.01% Tween-20, 23 C; FP: 20 mM Tris pH 7.5, 150 mM NaCl, 1% glycerol, 0.5 mg/mL BSA, 0.05% Triton X-100, RT, 50 nM probe; HDX: PBS pH 7.2, 5 C", "settings": "protein: recombinant; tags: His6-FLAG N-terminal, removed (TEV/thrombin) for BLI; HDX construct tag-free with extra non-native residues; blunt"}, "[3]": {"biological_target": "T1, BAZ1A-PHD", "test": "BLI; n=10; BLI: 50 mM Tris pH 7.5, 150 mM NaCl, 1 mM TCEP, 0.5% BSA, 0.01% Tween-20, 23 C; FP: 20 mM Tris pH 7.5, 150 mM NaCl, 1% glycerol, 0.5 mg/mL BSA, 0.05% Triton X-100, RT, 50 nM probe; HDX: PBS pH 7.2, 5 C", "settings": "protein: recombinant; tags: His6-FLAG N-terminal, removed (TEV/thrombin) for BLI; HDX construct tag-free with extra non-native residues; label: 5' biotin; blunt"}, "[4]": {"biological_target": "T2, dAcf1-PHD(1) (Drosophila, UniProt Q9V9T4 1051-1115)", "T2 sequence": "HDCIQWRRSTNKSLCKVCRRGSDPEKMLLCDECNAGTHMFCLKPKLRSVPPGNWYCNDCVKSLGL", "test": "BLI; BLI: 50 mM Tris pH 7.5, 150 mM NaCl, 1 mM TCEP, 0.5% BSA, 0.01% Tween-20, 23 C; FP: 20 mM Tris pH 7.5, 150 mM NaCl, 1% glycerol, 0.5 mg/mL BSA, 0.05% Triton X-100, RT, 50 nM probe; HDX: PBS pH 7.2, 5 C", "settings": "protein: recombinant; tags: His6-FLAG N-terminal, removed for BLI; label: 5' biotin; blunt"}, "[5]": {"biological_target": "T3, BAZ1B-PHD (UniProt Q9UIG0 1172-1237)", "T3 sequence": "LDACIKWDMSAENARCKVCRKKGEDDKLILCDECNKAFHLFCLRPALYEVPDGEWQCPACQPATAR", "test": "BLI; BLI: 50 mM Tris pH 7.5, 150 mM NaCl, 1 mM TCEP, 0.5% BSA, 0.01% Tween-20, 23 C; FP: 20 mM Tris pH 7.5, 150 mM NaCl, 1% glycerol, 0.5 mg/mL BSA, 0.05% Triton X-100, RT, 50 nM probe; HDX: PBS pH 7.2, 5 C", "settings": "protein: recombinant; tags: His6-FLAG N-terminal, removed for BLI; label: 5' biotin; blunt"}, "[6]": {"biological_target": "T4, BAZ1B-PHD A1227K/Y1229K (UniProt Q9UIG0 1172-1237, A1217K;Y1219K)", "T4 sequence": "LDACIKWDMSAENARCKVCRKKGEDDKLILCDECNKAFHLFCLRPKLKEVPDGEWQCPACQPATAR", "test": "BLI; BLI: 50 mM Tris pH 7.5, 150 mM NaCl, 1 mM TCEP, 0.5% BSA, 0.01% Tween-20, 23 C; FP: 20 mM Tris pH 7.5, 150 mM NaCl, 1% glycerol, 0.5 mg/mL BSA, 0.05% Triton X-100, RT, 50 nM probe; HDX: PBS pH 7.2, 5 C", "settings": "protein: recombinant; tags: His6-FLAG N-terminal, removed for BLI; label: 5' biotin; blunt"}, "[7]": {"biological_target": "T5, BAZ1A-PHD K1181A/K1183Y (KAKY) (human, UniProt Q9NRL2 1137-1202, K1181A;K1183Y)", "T5 sequence": "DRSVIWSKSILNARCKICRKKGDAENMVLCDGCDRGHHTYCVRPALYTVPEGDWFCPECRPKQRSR", "test": "BLI; BLI: 50 mM Tris pH 7.5, 150 mM NaCl, 1 mM TCEP, 0.5% BSA, 0.01% Tween-20, 23 C; FP: 20 mM Tris pH 7.5, 150 mM NaCl, 1% glycerol, 0.5 mg/mL BSA, 0.05% Triton X-100, RT, 50 nM probe; HDX: PBS pH 7.2, 5 C", "settings": "protein: recombinant; tags: His6-FLAG N-terminal, removed for BLI; label: 5' biotin; blunt"}, "[8]": {"biological_target": "T1, BAZ1A-PHD", "test": "competition; fluorescence polarization, 5.3 uM protein, 50 nM labeled probe; IC50 not in text; BLI: 50 mM Tris pH 7.5, 150 mM NaCl, 1 mM TCEP, 0.5% BSA, 0.01% Tween-20, 23 C; FP: 20 mM Tris pH 7.5, 150 mM NaCl, 1% glycerol, 0.5 mg/mL BSA, 0.05% Triton X-100, RT, 50 nM probe; HDX: PBS pH 7.2, 5 C", "settings": "protein: recombinant; tags: His6-FLAG N-terminal, removed (TEV/thrombin) for BLI; HDX construct tag-free with extra non-native residues; blunt"}, "[9]": {"biological_target": "T1, BAZ1A-PHD", "test": "BLI; identical results to scrambled sequence; BLI: 50 mM Tris pH 7.5, 150 mM NaCl, 1 mM TCEP, 0.5% BSA, 0.01% Tween-20, 23 C; FP: 20 mM Tris pH 7.5, 150 mM NaCl, 1% glycerol, 0.5 mg/mL BSA, 0.05% Triton X-100, RT, 50 nM probe; HDX: PBS pH 7.2, 5 C", "settings": "protein: recombinant; tags: His6-FLAG N-terminal, removed (TEV/thrombin) for BLI; HDX construct tag-free with extra non-native residues; label: 5' biotin; blunt"}}}
{"molecule": "human biotinylated mononucleosome (EpiCypher)", "values": [{"measurement": "Kd", "setting": "[1]", "result": 48, "unit": "µM"}]}
{"molecule": "20 bp HDX duplex (dsDNA) DNA 1: ACTGACTCTGGACTACTGAG DNA 2: CTCAGTAGTCCAGAGTCAGT", "values": [{"measurement": "binding result", "setting": "[2]", "result": "binds"}]}
{"molecule": "scrambled Widom-601 145 bp duplex (dsDNA) DNA 1: CTTGCATCGATCCGATTGAACCATCGCTCGGTGACAGCTACGTGACTTAGTGTGCCCCATCGATCCAGTTCGATCACAGGCCACCTGAGTCGAGAGTATCGACACCCAGTGAACGATCGATCCGACTCGATCGCCTCACTGCTAG DNA 2: CTAGCAGTGAGGCGATCGAGTCGGATCGATCGTTCACTGGGTGTCGATACTCTCGACTCAGGTGGCCTGTGATCGAACTGGATCGATGGGGCACACTAAGTCACGTAGCTGTCACCGAGCGATGGTTCAATCGGATCGATGCAAG", "values": [{"measurement": "Kd", "setting": "[3]", "result": "51 ± 9", "unit": "µM"}, {"measurement": "binding result", "setting": "[4]", "result": "no binding"}, {"measurement": "binding result", "setting": "[5]", "result": "no binding"}, {"measurement": "binding result", "setting": "[6]", "result": "no binding"}, {"measurement": "binding result", "setting": "[7]", "result": "no binding"}]}
{"molecule": "Widom-601 145 bp duplex, unlabeled (dsDNA) DNA 1: ATCAGAATCCCGGTGCCGAGGCCGCTCAATTGGTCGTAGACAGCTCTAGCACCGCTTAAACGCACGTACGCGCTGTCCCCCGCGTTTTAACCGCCAAGGGGATTACTCCCTAGTCTCCAGGCACGTGTCAGATATATACATCGAT DNA 2: ATCGATGTATATATCTGACACGTGCCTGGAGACTAGGGAGTAATCCCCTTGGCGGTTAAAACGCGGGGGACAGCGCGTACGTGCGTTTAAGCGGTGCTAGAGCTGTCTACGACCAATTGAGCGGCCTCGGCACCGGGATTCTGAT", "values": [{"measurement": "binding result", "setting": "[8]", "result": "binds"}]}
{"molecule": "Widom-601 145 bp duplex, biotinylated (dsDNA) DNA 1: ATCAGAATCCCGGTGCCGAGGCCGCTCAATTGGTCGTAGACAGCTCTAGCACCGCTTAAACGCACGTACGCGCTGTCCCCCGCGTTTTAACCGCCAAGGGGATTACTCCCTAGTCTCCAGGCACGTGTCAGATATATACATCGAT DNA 2: ATCGATGTATATATCTGACACGTGCCTGGAGACTAGGGAGTAATCCCCTTGGCGGTTAAAACGCGGGGGACAGCGCGTACGTGCGTTTAAGCGGTGCTAGAGCTGTCTACGACCAATTGAGCGGCCTCGGCACCGGGATTCTGAT", "values": [{"measurement": "binding result", "setting": "[9]", "result": "binds"}]}
